Test results from patent publication US8816055.

Molecular target: human plasma kallikrein (active form) (human), P03952
Test: Ki,app on full length pKal, enzyme inhibition
Details: remark: other sources report otherwise

Chain of human plasma kallikrein (active form) (human), P03952 (P03952 20-390, chain 1 of 2): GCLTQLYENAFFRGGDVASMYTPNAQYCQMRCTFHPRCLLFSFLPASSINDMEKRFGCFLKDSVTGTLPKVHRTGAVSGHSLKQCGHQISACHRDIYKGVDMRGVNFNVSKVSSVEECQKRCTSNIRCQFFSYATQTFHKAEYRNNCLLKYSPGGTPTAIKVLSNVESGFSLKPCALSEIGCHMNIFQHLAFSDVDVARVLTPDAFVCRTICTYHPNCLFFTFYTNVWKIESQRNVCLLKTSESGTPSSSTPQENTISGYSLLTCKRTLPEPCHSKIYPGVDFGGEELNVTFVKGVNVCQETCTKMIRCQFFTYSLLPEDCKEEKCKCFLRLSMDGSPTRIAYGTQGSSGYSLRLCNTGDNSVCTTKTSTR
Chain of human plasma kallikrein (active form) (human), P03952 (P03952 391-638, chain 2 of 2): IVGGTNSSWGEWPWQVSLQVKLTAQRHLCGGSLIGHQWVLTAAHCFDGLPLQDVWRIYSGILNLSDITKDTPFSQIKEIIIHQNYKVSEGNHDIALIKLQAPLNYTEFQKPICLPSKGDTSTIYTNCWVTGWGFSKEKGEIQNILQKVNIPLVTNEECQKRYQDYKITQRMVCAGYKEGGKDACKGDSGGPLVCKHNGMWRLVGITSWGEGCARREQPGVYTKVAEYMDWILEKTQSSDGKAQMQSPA

Row | Binder | Ki [nM]
1 | X115-A03 (antibody, V domains shown) VL: DIQMTQSPSTLSASVGDRVTITCRASQSISSWLAWYQQKPGKAPKLLIYKASTLESGVPSRFSGSGSGTEFTLTISSLQPDDFATYYCQQYNTYWTFGQGTKVEIK VH: EVQLLESGGGLVQPGGSLRLSCAASGFTFSHYIMMWVRQAPGKGLEWVSGIYSSGGITVYADSVKGRFTISRDNSKNTLYLQMNSLRAEDTAVYYCAWRRIGVPRRDSFDMWGQGTMVTVSS | 0.16
2 | X115-D01 (antibody, V domains shown) VL: DIQMTQSPSTLSASVGDRVTITCRASQSISSWLAWYQQKPGKAPKLLIYKASTLESGVPSRFSGSGSGTEFTLTISSLQPDDFATYYCQQYNTYWTFGQGTKVEIK VH: EVQLLESGGGLVQPGGSLRLSCAASGFTFSIYSMHWVRQAPGKGLEWVSSIYPSRGMTWYADSVKGRFTISRDNSKNTLYLQMNSLRAEDTAVYYCAYRRTGIPRRDAFDIWGQGTMVTVSS | 0.18
3 | X115-F02 (Fab, V domains shown) VL: DIQMTQSPSTLSASVGDRVTITCRASQSISSWLAWYQQKPGKAPKLLIYKASTLESGVPSRFSGSGSGTEFTLTISSLQPDDFATYYCQQYNTYWTFGQGTKVEIK VH: EVQLLESGGGLVQPGGSLRLSCAASGFTFSHYIMMWVRQAPGKGLEWVSGIYSSGGITVYADSVKGRFTISRDNSKNTLYLQMNSLRAEDTAVYYCAYRRIGVPRRDEFDIWGQGTMVTVSS | 0.089
4 | X115-G04 (antibody, V domains shown) VL: DIQMTQSPSTLSASVGDRVTITCRASQSISSWLAWYQQKPGKAPKLLIYKASTLESGVPSRFSGSGSGTEFTLTISSLQPDDFATYYCQQYNTYWTFGQGTKVEIK VH: EVQLLESGGGLVQPGGSLRLSCAASGFTFSHYIMMWVRQAPGKGLEWVSGIYSSGGITVYADSVKGRFTISRDNSKNTLYLQMNSLRAEDTAVYYCAYRRTGVPRRDEFDIWGQGTMVTVSS | 0.6
5 | X115-B07 (antibody, V domains shown) VL: EIVLTQSPGTLSLSPGERATLSCRTSQFVNSNYLAWYQQKPGQAPRLLIYGASSRATGIPDRFSGSGSGTDFTLTISRLEPEDFAVYYCQQSSRTPWTFGQGTKVEIK VH: EVQLLESGGGLVQPGGSLRLSCAASGFTFSHYLMTWVRQAPGKGLEWVSYISPSGGHTIYADSVKGRFTISRDNSKNTLYLQMNSLRAEDTAVYYCAMVGQGIRGRSRTSYFAQWGQGTLVTVSS | 0.33
6 | X115-E09 (antibody, V domains shown) VL: EIVLTQSPGTLSLSPGERATLSCRTSQFVNSNYLAWYQQKPGQAPRLLIYGASSRATGIPDRFSGSGSGTDFTLTISRLEPEDFAVYYCQQSSRTPWTFGQGTKVEIK VH: EVQLLESGGGLVQPGGSLRLSCAASGFTFSHYLMTWVRQAPGKGLEWVSYISPSGGHTIYADSVKGRFTISRDNSKNTLYLQMNSLRAEDTAVYYCARVAQGIAARSRTSSVDQWGQGTLVTVSS | 0.34
7 | X115-H06 (antibody, V domains shown) VL: EIVLTQSPGTLSLSPGERATLSCRTSQFVNSNYLAWYQQKPGQAPRLLIYGASSRATGIPDRFSGSGSGTDFTLTISRLEPEDFAVYYCQQSSRTPWTFGQGTKVEIK VH: EVQLLESGGGLVQPGGSLRLSCAASGFTFSHYLMTWVRQAPGKGLEWVSYISPSGGHTIYADSVKGRFTISRDNSKNTLYLQMNSLRAEDTAVYYCARVAQGISARSRTSYFDYWGQGTLVTVSS | 0.35
8 | X115-D05 (antibody, V domains shown) VL: EIVLTQSPGTLSLSPGERATLSCRTSQFVNSNYLAWYQQKPGQAPRLLIYGASSRATGIPDRFSGSGSGTDFTLTISRLEPEDFAVYYCQQSSRTPWTFGQGTKVEIK VH: EVQLLESGGGLVQPGGSLRLSCAASGFTFSDYMMAWVRQAPGKGLEWVSSIVPSGGHTHYADSVKGRFTISRDNSKNTLYLQMNSLRAEDTAVYYCARVARGIAARSRTSYFDYWGQGTLVTVSS | 0.25
